Experimental findings from article PMC7353009, “Identification of Substrates of Cytoplasmic Peptidyl-Prolyl Cis/Trans Isomerases and Their Collective Essentiality in Escherichia Coli” (International Journal of Molecular Sciences, 2020) are described below.

Sequences and labels used below:
T1: Hexa-His-tagged PpiC M57A (E. coli)
T1 chain: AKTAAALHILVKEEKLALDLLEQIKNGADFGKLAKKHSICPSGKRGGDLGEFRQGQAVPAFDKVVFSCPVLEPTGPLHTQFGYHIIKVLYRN

T2: Hexa-His-tagged PpiC F81A (E. coli)
T2 chain: T1 chain with A57M, F81A

T3: Hexa-His-tagged FkpB (wild type) (E. coli, UniProt P0AEM0 1-149)
T3 chain: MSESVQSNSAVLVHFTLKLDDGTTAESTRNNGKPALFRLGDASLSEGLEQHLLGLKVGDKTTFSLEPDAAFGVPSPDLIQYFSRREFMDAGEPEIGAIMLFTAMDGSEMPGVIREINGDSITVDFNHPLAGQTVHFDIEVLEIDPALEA

B1: RpoE peptide P3 (peptide)
peptide: FRAREAIDNKVQPLIRR
notes: peptide covering conserved region 4 of RpoE, E. coli, including R178
B2: RseA peptide Rse3 (peptide)
peptide: IIEEEPVRQPATL
notes: peptide from the conserved regions of the N-terminal domain of RseA, E. coli
B3: AhpC-derived peptide (peptide)
peptide: RATFVVDPQGI
notes: peptide from AhpC (alkyl hydroperoxide reductase subunit C), E. coli; also called AhpC peptide
B4: S2-derived peptide (peptide)
chain: TRYWNPKMKPFIFGA
modifications: This paper prints neither letters nor limits. Limits 20-34 are recalled from the SlyD/FKBP S2 peptide of the cited work (ref. 12), as are the check residues. Terminal modifications unknown.
B5: RseA peptide Rse1 (peptide, UniProt P0AFX7 2-29, looked up)
peptide: QKEQLSALMDGETLDSELLNELAHNPEM
notes: peptide corresponding to amino acid 2-29 of N-RseA (N-terminal domain of the anti-sigma factor RseA), E. coli
B6: RpoE peptide P4 (peptide)
peptide: AAIMDCPVGTVRSRI
notes: peptide derived from conserved region 4 of RpoE, E. coli
B7: RpoE peptide P1 (peptide)
peptide: YLVAQGRRPPSSDVD
notes: peptide corresponding to the C-terminal end of conserved region 2.4 of RpoE, E. coli
B8: RpoE peptide P2 (peptide)
peptide: KVASLVSRYVPSGDV
notes: peptide derived from conserved region 2 of RpoE, E. coli
B9: Hexa-His-tagged PpiC (wild type) (enzyme, E. coli, UniProt P0A9L5 1-93, looked up)
chain: MAKTAAALHILVKEEKLALDLLEQIKNGADFGKLAKKHSICPSGKRGGDLGEFRQGQMVPAFDKVVFSCPVLEPTGPLHTQFGYHIIKVLYRN
notes: PpiC, parvulin peptidyl-prolyl cis/trans isomerase, E. coli; coding region of the ppiC gene in pET24b; The tag is called cleavable; also called wt PpiC; wild-type PpiC; source: E. coli T7 express derivative lacking all six PPIs (SR21984), IPTG-induced; in lysate on Ni-NTA for co-elution; purified (Ni-NTA) for ITC; not shown: His6, C-terminal, kept
B10: Hexa-His-tagged FkpB (wild type) (enzyme, E. coli, UniProt P0AEM0 1-149, looked up)
chain: T3 chain
notes: FkpB, FKBP-type peptidyl-prolyl cis/trans isomerase, E. coli; minimal coding region of the fkpB gene in pET24b; also called wild-type FkpB; source: E. coli T7 express derivative lacking all six PPIs (SR21984), IPTG-induced; in lysate on Ni-NTA for co-elution; purified (Ni-NTA) for ITC; not shown: His6, C-terminal, kept

Residue numbers refer to the chain shown, from its start. Where “and” joins values, the source holds several entries; their conditions need not be identical. Equal values may be shown once.

In experiment [1] the target is B10. In words: ITC; Nano ITC; 200 μM peptide in the cell titrated with 2 mM protein, 25 injections of 2 μL, 20 °C, 20 mM sodium phosphate pH 7.5, 100 mM NaCl; 1:1 binding model. As to conditions: both partners purified. On the technique in general: ITC needs no label: the signal is the heat of the interaction.
Experiment [2] has as its target T1, Hexa-His-tagged PpiC M57A. Put plainly: ITC.
For experiment [3], the target named is T2, Hexa-His-tagged PpiC F81A. In words: ITC.
In experiment [4] the target is T3, Hexa-His-tagged FkpB (wild type). In words: ITC.
In experiment [5] the target is B9. In words: ITC; Nano ITC; 200 μM peptide in the cell titrated with 2 mM protein, 25 injections of 2 μL, 20 °C, 20 mM sodium phosphate pH 7.5, 100 mM NaCl; 1:1 binding model. As to conditions: both partners purified.
In experiment [6] the target is B3. Described as above. As to conditions: both partners purified.
Experiment [7] deals with B5. Described as above. As to conditions: both partners purified.
Experiment [8] has as its target B2. The description is as above. As to conditions: both partners purified.

Broadly, the Kd is the constant that tells how readily two partners part at equilibrium. A high value points to weaker binding. Usually stoichiometry N stands for the number of molecules, sites or subunits per partner or assembly.

On to B1, for which the Kd in experiment [1] was 19 µM.
The same measure, in the same setting: under B2 stands 13 µM.
For B3, the Kd is 68.8 µM in experiment [2]; 77.6 µM in experiment [3]; 30.3 µM in experiment [4]; 30 µM and 47.4 µM in experiment [5]; 47 µM in experiment [1].
Regarding B4, the affinity in experiment [1], expressed as Kd, was 18.8 µM.
With B5, in experiment [1], the Kd came out at 15.1 µM.
B6 gave a Kd in experiment [1] of 10.3 µM.
Still for that read-out and setting: under B7 stands 38.1 µM; under B8, 10.7 µM.
As to B9, in experiment [6], the “stoichiometry N” value stood at 0.99.
For the molecule B10, the dH in experiment [7] is -2.18 kcal/mol; in experiment [8], -1.48 kcal/mol. For the same molecule, the figures for the “stoichiometry N” value in experiment [7] and in experiment [6] were 1 and 0.99, respectively.
